The record followed here is patent publication US20200256880A1 (BROAD INSTITUTE, published 2020).

What all share (assay): western blot of recombinant protein
Test [1] concerns the target recombinant CNAα double mutant S462E/S469E (human, UniProt Q08209 1-521, limits assumed). How it is done: (§1) Levels of total CNAα were used as a loading control and were assessed after stripping of the membranes and incubation with anti-CNAα rabbit by chemiluminescence (bottom panel).
The target in test [2] is T1, recombinant human CNAα wild type (unphosphorylated) (human, UniProt Q08209 1-521, limits assumed).
T1 construct: Co-expressed with the CNB1 subunit in E. coli and co-purified; run on denaturing gels for western blot; also called wild-type CNAα; WT CNAα
How it is done:
as §1

Test [3] deals with T2, recombinant human CNAα S469E phosphomimetic mutant (human, UniProt Q08209 1-521, limits assumed).
T2 construct: Co-expressed with CNB1 in E. coli and co-purified; also called S469E CNAα; phosphomimic mutant S469E
How it is done:
as §1

B1: monoclonal mouse anti-pS469 CNAα antibody (antibody, V domains shown)
VH: EVQLQQSGAELVRPGASVKLSCTASDFNIKDTYIHWLKQRPEQGLEWIGRIDPANSNPKYDPNFQGKATITTDTSSNTAYLQLSSLTSDDTAVYYCTRRDYYGSGSWFAYWGQGTLVTVSS
VL: DIVMTQAAPSVPVTPGESVSISCRSSKSLLHSNGNTYLYWFLQRPGQSPQLLIYRMSNLASGVPDRFSGSGSGTAFTLRINRVEAEDVGVYYCMQHLEYPLTFGAGTKLELK
notes: 7 and 9 are used; Mouse monoclonal; also called monoclonal mouse anti-S469 phosphospecific antibody; monoclonal murine anti-S469 CNAα phosphospecific antibody
Regarding B1, the binding result is recorded as “binds” in test [1], “no binding” in test [2] and “binds” in test [3].
